According to the RNAGym collection of RNA variant scans (doi:10.1073/pnas.2313332121):
Fewer inactive variants are shown than the library holds.

B1: TPR 5TU (parent)
chain: GGAUCUUCUCGAUCUAACAAAAAAGACAAAUCUGCCACAAAGCUUGAGAGCAUCUUCGGAUGCAGAGGCGGCAGCCUUCGGUGGCGCGAUAGCGCCAACGUUCUCAACUAUGACACGCAAAACGCGUGCUCCGUUGAAUGGAGUUUAUCAUG

Variants of: B1
Assay: polymerase ribozyme fitness, log enrichment relative to wild type (log ratio); higher = more active; in vitro selection for triplet polymerase activity
Outline: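 Streptavidin-bead capture of gel-excised extended constructs, followed by RT-PCR, closed a single triplicate in vitro selection round. That round began by annealing PCR-built, transcribed mutant libraries of each subunit of a heterodimeric triplet polymerase ribozyme with a biotinylated primer, the partner subunit and triplets, then incubating them frozen at −7 °C. After Illumina sequencing of inputs and outputs, genotypes needed ≥10 input reads and ≥1 read per output. Fitness is the base-2 logarithm of genotype enrichment over wild-type enrichment, using inverse-variance-weighted replicate averages.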

Variant | polymerase ribozyme fitness (log ratio)
C38U C85U C105U C123G | 0.319
C38U U55G G84C A98U | -1
A39C C85A C118A | -3.96
A39C U55A C118U | -2.2
A39C A47C G62A C85U A98U U134A | ≤ -4.2
C38U U61C U145A | -2.49
C38U C87U C95U U144A | -1.21
C38U G86A A137G A147U | -2.49
C38U C54A A60U | -0.76
C38U C63A G94C | -0.694
C38U U55G G83U U135C | -1.98
C38U G50A A73U G126U | -3.21
A39C A41C A115G G124A | -3.47
A39C G81C C85U C116A G141C | ≤ -4.2
C38U C85A G117C | -0.0326
C38U G81C U111G A138G | ≤ -4.2
A39C A89U C116U | -2.02
A39C C54G C93A | ≤ -4.2
A39C G133C U146A | -3.57
C38U U82C C85U U90G C99U C105U C108G A120G | ≤ -4.2
C38U G50U U56A G74U C75G C125U U139A | ≤ -4.2
C38U G81A C99G A120U G124C | -3.02
A39C A41C G86U U139G | ≤ -4.2
C38U C93G C125A | -3.39

Variant | polymerase ribozyme fitness (log ratio)
A39C G81A C99U C103G A107G C125U | ≤ -4.2
A39C G62A A66U U134G G143A | ≤ -4.2
C38U C63U A73G C87U | -0.21
C38U C75A G80U | -4.14
A39C G62U G70A A115G | ≤ -4.2
C38U U148C | -1.36
C38U C69G C95U A122C | -2.43
A39C A91U G92A U139G | ≤ -4.2
C38U C57A G143C | -2.41
C38U G62A C96U C129U | -0.672
C38U C79U A121U C125A G143U | -3.92
A39C U53G C85U | -4.06
C38U A106U U145C | -1.24
C38U A89G | -1.07
A39C A40C G70C G88C U109C | ≤ -4.2
A39C A64C C93U | ≤ -4.2
A39C A52G C123G | -2.84
C38U C95A C108U C132U | -3.39
A39C C51U C105U C118U | -3.78
A39C U53A G86C C105A A119U | ≤ -4.2
C38U U45A G92C | -4.13
A39C U55G G81C A121U | -2.31
C38U A110U | -3.7
C38U C95A C108U | -3.39

Variant | polymerase ribozyme fitness (log ratio)
C38U G48C G92A A142C G143U | ≤ -4.2
A39C G141U | -2.91
C38U G84U C87G U144C C149G | ≤ -4.2
C38U C125A | -0.6
C38U G92U C95G A106U | ≤ -4.2
C38U C69A U82A G94U | -3.99
C38U C87U G94U | -1.73
C38U C95U | -0.731
C38U C95A | -1.07
A39C C63A A64U G84A C93G C116G | ≤ -4.2
A39C G71C U78A C95U A122G | ≤ -4.2
C38U C51G U82C C96A A97U C125G | -3.55
C38U C72U C95G | -0.675
A39C C54A G81A | -3.05
C38U G94U | -0.0168
C38U G83A G100A C129G | ≤ -4.2
C38U C96G G152U | -3.85
C38U U55C A64U G94A C103A C125U | ≤ -4.2
C38U C96G | -1.09
A39C U45A G48U C57G G70A G83C C96U A115G G141A | ≤ -4.2
A39C G68A G80A C118U G128U | ≤ -4.2
A39C U56G A73G | -3.36
A39C U53A G62C U144A | ≤ -4.2
A39C G59U C76G U146G | ≤ -4.2

Variant | polymerase ribozyme fitness (log ratio)
A39C A52G | -2.32
C38U G83U C123U U148C | -2.21
C38U G86A | -1.16
C38U G86U | -1.57
C38U U53A C105U | 0.169
C38U G88C G126C A147C | ≤ -4.2
C38U A120U | -0.54
A39C G88C A97G C114G | ≤ -4.2
A39C U130G | ≤ -4.2
C38U G58C C96U A98G | 0.385
C38U U56A A147C | -0.21
C38U U56A A60U C95A | -1.13
A39C G84A | -3.26
A39C G65C G83C G143A A150U | ≤ -4.2
C38U C76G | ≤ -4.2
C38U A107C | -3.45
A39C U56A G59C | -2.08
C38U U90G C95A | ≤ -4.2
A39C U82G G83C G133C | ≤ -4.2
C38U G80C C85U G100U | ≤ -4.2
A39C G84A U144A | -2.69
C38U A121C G136C A138U U148G | ≤ -4.2
A39C C76U G83U U104C | ≤ -4.2
A39C C54A G65C C93A G124U A138C | ≤ -4.2

Variant | polymerase ribozyme fitness (log ratio)
C38U G84U | -2.42
A39C A47U | -2.53
C38U C87G | -3.75
C38U C87U | -1.19
C38U C57A C63U C95U A98U C99G | -1.54
C38U G62A A113G G136A | -2.45
C38U C87U A115U C125U | -3.34
C38U U55G C85A | -2.3
C38U U44A A47U G67C C69U G84A | ≤ -4.2
C38U U53G C96G | -1.73
A39C G59A C87A U139G | ≤ -4.2
A39C G92U C95A G112A U145G | ≤ -4.2
C38U C95G U102A | -2.51
C38U U61A A106C G141A | -3.01
A39C A60G C87U A147C | -3.78
C38U C57G A89U G100C | ≤ -4.2
C38U C116G U148A | -3.89
C38U G140U | -2.77
C38U C63A C85U | 0.65
A39C A89C A119U A120G U130A | ≤ -4.2
A39C C57A G86A U130C | -2.93
C38U U45A G68C U102G A138G | ≤ -4.2
A39C C118G | -2.92
C38U G83C | -0.262

Variant | polymerase ribozyme fitness (log ratio)
C38U G136U | -2.3
C38U G46A C95A | -0.705
C38U C85U C95G C105A | -3.93
C38U G83U C149G A150C | ≤ -4.2
C38U C54U C57A G84A C118U | -1.06
A39C C75U G83A | ≤ -4.2
A39C G58A G59C | -1.49
A39C A40C A41C G42C G46U G59C C87A U90G U127G G152U | ≤ -4.2
C38U G86U C118U | -2.07
C38U G62U C96G | -1.8
C38U C93A A119C A142U | -3.54
C38U C96G A142U U146A | -1.67
A39C C85U C149U | -2.98
C38U C93U A121G G124A U135G | ≤ -4.2
C38U U44A G70C U134G | ≤ -4.2
A39C C118U A120U | -1.81
C38U G50A A52U G68U G80A A97G A137U | ≤ -4.2
C38U U61G G92U C116G G140A U144C | ≤ -4.2
A39C G59C G86A | -3.73
C38U U45A G84U C129A A142C | ≤ -4.2
C38U G48A C87A | ≤ -4.2
A39C C96G A137U | ≤ -4.2
C38U G92A U146A | -2.92
C38U C93G | -2.92

Variant | polymerase ribozyme fitness (log ratio)
A39C A40C A49C | ≤ -4.2
C38U U55A A60G C75G C76G A115U A122U C125G | ≤ -4.2
C38U C76U G81C | -0.0752
A39C C87U U101G G117U | -3.2
C38U G50A U77C C87G | ≤ -4.2
C38U U55A C85U | -0.272
C38U U145A | 0.631
C38U U55G A119G | -0.675
C38U U56A G70C A91U U104A A107C U145A | ≤ -4.2
A39C U44G C75U C95U A119U G128U | ≤ -4.2
C38U G86A U148C | -3.22
A39C G88U A97G A122G | ≤ -4.2
C38U U78C C95U | -0.556
A39C U53C U135C | -3.94
A39C A91U G94A G133C A142U U145A U148A | ≤ -4.2
C38U C51U U56A G94U C105A A121U | -4.15
A39C A52G G70A C99G G100A U144A | ≤ -4.2
A39C C79G G92A | -3.32
C38U G58U C85U C108A U134A U144C | ≤ -4.2
C38U C85G C93U G117U G128C | ≤ -4.2
A39C G143U | -4.15
C38U G58A U61A U134C | -1.57
A39C G42C C76A U144G | ≤ -4.2
